What all share (conditions): tags: Alexa Fluor 647 label (SA-alexa647); chain copies: 4
For data set [1], the target named is T1, streptavidin (SA) (UniProt P22629 P22629:25-183). Put plainly: NY selection: no signal with 500 nM SA alone. The method, then:
(3) After sequencing was completed, target protein SA at a concentration of 500 nmol/L and a combination of target proteins SA and 3RA at 500 nmol/L each were sequentially introduced into the flowcell, followed by incubation. After each incubation was completed, 300 μL of PBST was used to wash the channels. After washing was completed, a 640 nm laser was used for excitation, and the surface of the solid carrier was imaged to collect the corresponding emission signals. Before introducing the next target at each time, the channels were washed with 750 μL of NaOH to remove the previously bound target.

The target of data set [2] is T1, streptavidin (SA). Description: flowcell clusters in mixture library; signal graded with 1.95-500 nM SA-alexa647, weak below 31 nM. Here is the method: (3) Into the four flow channels of the sequencing flowcell (L1, L2, L3, and L4 respectively), SA-alexa647 at concentrations of 500 nmol/L, 125 nmol/L, 31.25 nmol/L, and 1.95 nmol/L was introduced, respectively, and the flowcell was incubated for 30 minutes for in situ hybridization. After incubation, 300 μL of PBST was used to wash the channels to remove unreacted fluorescently labeled SA-alexa647.

For data set [3], the target named is T1, streptavidin (SA). Description: 0 of 2808 (30% mix) and 2 of 575 (10% mix) target-bound clusters were reverse strand.

T1 sequence (P22629 25-183, one chain of several): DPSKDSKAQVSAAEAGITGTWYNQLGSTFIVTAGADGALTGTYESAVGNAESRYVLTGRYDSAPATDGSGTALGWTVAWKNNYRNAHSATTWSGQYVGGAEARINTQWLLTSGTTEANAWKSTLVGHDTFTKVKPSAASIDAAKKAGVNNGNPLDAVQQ

B1: 3RA positive aptamer sequence 1 (ssDNA)
DNA: TCACGGTAGCACGCATAGGGGAGGATTCCGACTAAGTTTCCGTCGCATGAGCGTTGCTATGCGTGGAGTGCTGAAGTTGGC
For the molecule B1, the binding result with streptavidin (SA) [1] is on record as “no binding”.

B2: 3RA positive aptamer sequence 4 (ssDNA)
DNA: AATGGTCCAGCACTCCACGCATAACGAATAGGTCCTAAACGAGGGGTCAGGGAAGTCGCCGGTTATGCGTGCTACCGTGAA
Turning to B2, in the data set with streptavidin (SA) [1], the binding result was “no binding”.

B3: tagged SA-positive aptamer (GGCTAC tag) (ssDNA)
DNA: GGCTACAGCAGCACAGAGGTCAGATGGACGCACCGATCGCAGGTTCCGAAATGACTACTTGGTTGCCTATGCGTGCTACCGTGAAGGCTAC
As for B3, the binding result in the data set with streptavidin (SA) [2] is on record as “binds”.

B4: SA-positive aptamer reverse strand (ssDNA)
DNA: TTCACGGTAGCACGCATAGGCAACCAAGTAGTCATTTCGGAACCTGCGATCGGTGCGTCCATCTGACCTCTGTGCTGCT
modifications: [NONE]
For B4, the binding result with streptavidin (SA) [3] was “no binding”.

B5: 3RA positive aptamer sequence 3 (ssDNA)
DNA: CACGGTAGCACGCATAACGCCGAGTTCCATTATAAAGTCCGCGCCCGACTACCCCCGTTATGCGTGGAGTGCTGGACATGC
On to B5, for which the binding result in the data set with streptavidin (SA) [1] is “no binding”.

B6: 3RA positive aptamer sequence 2 (ssDNA)
DNA: CGAAGTTCAGCACTCCACGCATAGCCCTCGGAGGTCTACGAGAATGCCTACAGCCCTGTGCCCTATGCGTGCTACCGTGAA
For B6, the binding result with streptavidin (SA) [1] is given as “no binding”.

Values taken from US20260035692, “METHOD FOR SCREENING FOR APTAMER BY SEQUENCING” (GeneMind Biosciences Co., Ltd., published 2026).
